# Laboratory results: the nanobody polyreactivity screen of Harvey et al. (2022)
# Experiment: yeast display, Sf9 membrane polyspecificity reagent, FACS + sequencing; frameworks hold sequencing errors
# Outline: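 A nanobody's polyreactivity label depends on the gate it was sorted from. Yeast display cells were stained with 10% biotinylated, detergent-solubilized Sf9 membrane reagent for 1 hour at 4 °C, enriched on streptavidin microbeads and sorted by FACS. The low and high (top ~1%) gates were set on anti-HA fluorescence for expression and streptavidin fluorescence for reagent binding.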
row,Sequence,polyreactivity (PSR sort gate)
1,QVQLVESGGGLVQAGGSLRLSCAASGRTFYKNAMGWYRQAPGKEREFVASISVSGGRTYYADSVKGRFTISRDNAKNTVYLQMNSLKQEDTAVYYCNARASPLSQRDYWGQGTQVTVSS,low polyreactivity
2,QVQLVESGGGLVQAGGSLRLSCAASGRTFYKNAMGWYRQATGKERELVARISRGGSTNYADSVKGRFTISRDNAKNTVYLQMNSLKPEDTAVYYCAKEYGTHGKTYDYWGQGTQVTVSS,high polyreactivity
3,QVQLVESGGGLVQAGGSLRLSCAASGRTFYKYAMGWSRQAPGKERELVAVINWSGGRTYADSVKGRFTISRDNAKNTVYLQMNSLKPEDTAVYYCAADRGGLTHRWERNDYWGQGTQVTVSS,low polyreactivity
4,QVQLVESGGGLVQAGGSLRLSCAASGRTFYKYVMVWYRQAPGKERELVAAITRSGGRTYYADSVKGRFTISRDNAKNTVYLHMNSLKPEDTAVYYCAAASYSGHGRYDYWGQGTQVTVSS,high polyreactivity
5,QVQLVESGGGLVQAGGSLRLSCAASGRTFYLYAMGWYIQAPGKERELVAGISRSGGSTYYADSVKGRFTISRDNAKNTVYLQMNSLKPEDTAVYYCAAGYYYWGQGTQVTVSS,high polyreactivity
6,QVQLVESGGGLVQAGGSLRLSCAASGRTFYLYTKGWYRQAPGKERELVAAISRGGRTYADSVKGRFTISRDNAKNTVYLQMNSLKPEDTAVDYCNRELTSPRRWHVSRAYDYWGQGTQVTVSS,low polyreactivity
7,QVQLVESGGGLVQAGGSLRLSCAASGRTFYLYTMGWYRQAPGKEREFVAIISRSGASTRYADSVKGRFTISRDNAKNTVYLQMNRLKPEDTAVYYCAAYVGYPYDYWGQGTQVTVSS,high polyreactivity
8,QVQLVESGGGLVQAGGSLRLSCAASGRTFYNNAMGWYRQAPGKERELVAAISWSGGSTFYADSVKGRFTISRDNAKKTVYLQMNSLKPEDTAVYYCAALGRPYGSDYWGQGTQVTVSS,high polyreactivity
9,QVQLVESGGGLVQAGGSLRLSCAASGRTFYNYAMGWYRQAPGKERELVASIRKNGGSTYYADSVKGRFTISRDNAKNTVYLQMNSLKPEDTAVYYCAARYWGISRIFPSKYDYWGQGTQVTVSS,high polyreactivity
10,QVQLVESGGGLVQAGGSLRLSCAASGRTFYPNAMGWSRQAPGKEREVVAAINSGGSTYYADSVKGRFTISRDKAKNTVYLQMNSLKPEDTAVYYCNAERRIAYEYWGQGTQVTVSS,low polyreactivity
11,QVQLVESGGGLVQAGGSLRLSCAASGRTFYPNAMGWSRQAPGQERAFVARISDSGGSTYYADSVKGRFTISRDNAKNTVYLQMNSLKPEDNAVYYCAADYGDPRVNEYDYWGQGTQVTVSS,low polyreactivity
12,QVQLVESGGGLVQAGGSLRLSCAASGRTFYPNTMGWYRQAPGKERELVATITRSGGNTYADSVKGRFTISRDNAKNTVYLQMNSLKREDTAVYYCNADQRRSYWLVSQRYDYWGQGTQVTVSS,low polyreactivity
13,QVQLVESGGGLVQAGGSLRLSCAASGRTFYPYAMGWNRQAPGKERELVAAIRSSGGTTYYADSVKGRFTISRDNAKNTVYLQMNSLKPEDTAFYYCAAYVDRQGGYYWGQGTQVTVSS,high polyreactivity
14,QVQLVESGGGLVQAGGSLRLSCAASGRTFYPYDLGWYRQEPGKERELVAAIRENGGSTYFADSVKGRFTISRDNAKNTVYLQLTSLKPEDNAVYYCAARNTRYWRYEYWGLGTQVTVSS,high polyreactivity
15,QVQLVESGGGLVQAGGSLRLSCAASGRTFYPYVMGWYRQAPGKEREMVAAISYTGGSTYYADSVKGRFTISRDNAKNTVYLQMNSLKPEDTAVYYCNRAKYYSGGYRYHVDYWGQGTQVTVSS,high polyreactivity
16,QVQLVESGGGLVQAGGSLRLSCAASGRTFYQYAMGWYRQAPGKERELVAAISRRGGSTYYADSVKGRFTISRDNAKNTVYLQMNSLKPEDTAVYYCAARVRGKYDYWGQGTQVTVSS,high polyreactivity
17,QVQLVESGGGLVQAGGSLRLSCAASGRTFYQYDMGWYRQAPGKERELVAAIDWSGGSTYYADSVKGRFTISRDNAKNTVYLQMNSLKPEDTAVYYCNKDSHISTAYDYWGQGTQVTVSS,low polyreactivity
18,QVQLVESGGGLVQAGGSLRLSCAASGRTFYQYDMGWYRQAPGKESELVAAIDWSGGSTYYADSVKGRFTISRDYAKITVYLQMNSLKPEDTAVYYCNADAYPHPVVGYDYWGQGTQVTVSS,low polyreactivity
19,QVQLVESGGGLVQAGGSLRLSCAASGRTFYQYTMGWYRQAPGKERELVAAITTSTGNTYYADSVKGRFTISRDNAKNTDYLQMNSLKPEDTAVYYCAADTVWRLDYWGQGTQVTVSS,low polyreactivity
20,QVQLVESGGGLVQAGGSLRLSCAASGRTFYRNAMGWSRPAPGKERELVAAISSDDSTNYADSVKGRFTISRDNAKNTVYLQMNSLKPEDTAVYYCNADYYYGYEYDYWGQGTQVTVSS,low polyreactivity
21,QVQLVESGGGLVQAGGSLRLSCAASGRTFYRNAMGWYRQAPGKERELVAAISNGGSTNYADSVKGRFTISRDNAKNTVYLQMNSLKPEDTAVYYCAKAVIRWRGSGQHGYFWYDYLGQGTQVTVSS,high polyreactivity
22,QVQLVESGGGLVQAGGSLRLSCAASGRTFYRNTMGWYRQAPGKEREFVAAISATAGRTYYADSVKGRFTISRDNAKNTVYLQMNSLKPEDTAVYYCAAVPLRNRWPNSWPALDYWGQGTQVTVSS,high polyreactivity

row,Sequence,polyreactivity (PSR sort gate)
1,QVQLVESGGGLVQAGGSLRLSCAASGRTFYRNTMGWYRQAPGKERELVAAITGSGGITYYADSVKGRFTISRDNAKNTVYLKMNSLKPEDTAVYYCAAARYLGQGTQVTVSS,high polyreactivity
2,QVQLVESGGGLVQAGGSLRLSCAASGRTFYRYAMGLYRQAPRKERELVASITRGTSTNYADSVKGRFTISRDNAKNTVYLQMNSLKPEDTAVYYCNRRIFGGQRMYYWGQGTQVTVSS,high polyreactivity
3,QVQLVESGGGLVQAGGSLRLSCAASGRTFYRYAMGWYRQAPGKERELVAAITGGGRTYYADSVKGRFTISRDNAKNTVYLQMNSLKPEDTAVYDCAAVVLRRPAYDYWGQGTQVTVSS,low polyreactivity
4,QVQLVESGGGLVQAGGSLRLSCAASGRTFYRYAMGWYRQAPGKERELVAAITRRGDSTSYADSVKGRFTISRDNAKNTVYLQMNSLKPEDTAVYYCATLVQGSVYGLYGGGYWGQGTQVTVSS,low polyreactivity
5,QVQLVESGGGLVQAGGSLRLSCAASGRTFYRYAMGWYRQAPGKERELVASITWSGGSTYYADSVKGRFTISRDNAKNTVYLQMNSLKPEDTAVYYCAAISAVTLRGYYYWGQGTQVTVSS,high polyreactivity
6,QVQLVESGGGLVQAGGSLRLSCAASGRTFYRYVMAWYRQAPRKERELVADITRSGGSTYYADSVKGRFTISRDNAKNTVYLQMNSLKPEDTAVYYCNKRYRVWFDYWGQGTQVTVSS,high polyreactivity
7,QVQLVESGGGLVQAGGSLRLSCAASGRTFYRYVMGWYRQAPGKERALVAAITWSGGSTYYADSVKGRFTISRDNAKNTVYLQMNSLKPEDTAVYYCAKGLYDASRRYYYWGQGTQVTVSS,high polyreactivity
8,QVQLVESGGGLVQAGGSLRLSCAASGRTFYSNAMGWYRQAPGKERELVAAITSTDDSTYYADSVKGRFTISRDNAKNTVNLQMYSLKPEYTAVYYCNTDGLIAIRGLWWFEFDYWGQGTQVTVSS,low polyreactivity
9,QVQLVESGGGLVQAGGSLRLSCAASGRTFYSNAMGWYRQAPGKERELVATITRRGGSTYYADSVKGRFTISRDNAKNTVYLQMNSLKPEDTAVYYCNAVSSKGNPYYYWGQGTQVTVSS,high polyreactivity
10,QVQLVESGGGLVQAGGSLRLSCAASGRTFYSYAMGWYRQAPGKEREFVAAINWSGTSTYADSVKGRFTISRDNAKNTVYLQMNSLKPEDTAVSYCAKTYRTLVRYWGQPFGYWGQGTQVTVSS,high polyreactivity
11,QVQLVESGGGLVQAGGSLRLSCAASGRTFYSYAMGWYRQAPGKERELVAAINSGGDTYYADSVKGRFTISRDNAKNSVYLQMNSLKAEDSAVYYCAADYYWEMDSWGQGTQVTVSS,low polyreactivity
12,QVQLVESGGGLVQAGGSLRLSCAASGRTFYSYAMGWYRQAPGKERELVAAISYTGASTFYADSVKGRFTISRDNAKNTVYLQMNSLKPEDTAVYYCAARKVRFGVDYWGPGTQVTVSS,high polyreactivity
13,QVQLVESGGGLVQAGGSLRLSCAASGRTFYSYAMGWYRQAPGKERELVASISSSGASTYYADSVKGRFTISRDNAKNTVYLQMNSLKPEDTAVYYCNSVWRTSFITIYGFDYWGQGTQVTVSS,high polyreactivity
14,QVQLVESGGGLVQAGGSLRLSCAASGRTFYSYAMGWYRQAPGKEREWVATITNGDTTNYADSVKGRFTISRDNAKNTVYLQMNSLKPEDTAVYYCAKDISPGYDEYDYWGQGTQVTVSS,low polyreactivity
15,QVQLVESGGGLVQAGGSLRLSCAASGRTFYSYAMGWYSQAPGKERELVATISSNADGTYYADSVKGRFTISRDNAKNTVYLQMNSLKPEDTAVYYCAATYRRSHRYNYWGQGTQVTVSS,high polyreactivity
16,QVQLVESGGGLVQAGGSLRLSCAASGRTFYSYTMGWYRQAPGKEREFVAAISSSGSSTYYADSVKGRFTISRDNAKYTVYLQMNSLKPEDTAVYYCAATRYRYPGYFRYDYWGQGTQVTVSS,high polyreactivity
17,QVQLVESGGGLVQAGGSLRLSCAASGRTFYSYVMGWYRQAPGKEREFVADISQSGGRTFYSDSVKGRFTISRDNAKNTVYLQMNSLKPEDTAVYYCAAAKRGSYARGYYWGQGTQVTVSS,low polyreactivity
18,QVQLVESGGGLVQAGGSLRLSCAASGRTFYSYVMGWYRQAPGKEREFVADISQSGGRTYYADSVKGRFTISRDNAKNTVYLQMNSLKPEDTAVYYCAAAKRGSYARGYYWGQGTQVTVSS,low polyreactivity
19,QVQLVESGGGLVQAGGSLRLSCAASGRTFYSYVMGWYRQAPGKERELVAAIRSSGRTYYADSVKGRFTISRDNAKNTVYLQMNRLTPEDTAVYYCAAYAWVSGSLYDSWGQGTQVTVSS,high polyreactivity
20,QVQLVESGGGLVQAGGSLRLSCAASGRTFYTNAMGWYRQAAGKERELVAVISRGGTTYYADSVKGRFTISRDNAKNTVYLQMNSLKPEDTAVYYCAKQRPSGDSSSQMGSWGQGTQVTVSS,low polyreactivity
21,QVQLVESGGGLVQAGGSLRLSCAASGRTFYTNAMGWYRQAPGKERELVASISGSGGSTYYADSVKGRFTISRDNGKNTVYLQMNSLNPEDTAVYYCAADPAPTVEFGKYDYWGQGTQVTVSS,low polyreactivity
